biological target: purified recombinant BoNT/A light chain (Lc) (Clostridium botulinum); experiment: ELISA; details: both partners purified

Row | Binder | binding result
1 | ciA-H11 (VHH, also called JEC-11; source: E. coli, purified as a thioredoxin fusion protein) VHH: QVQLVESGGGLVQPGGSLRLSCTASTLTLNYYAIGWFRQAPGKEREGVSCTGSSGGSTVYIDSVKGRFTVVRDNAKNMVYLQMDSLQPEDTAVYYCAADDLRCGRGWSSYFRGSWGQGTQVTVSS | binds
2 | ciA-D1 (VHH, also called JDT-2; source: E. coli, purified as a thioredoxin fusion protein) VHH: QVQLVESGGGLVQPGGSLRLSCATSGFTLEYYAIGWFRQAPGKGREGVACMNSSGGGTNYADSVKGRFTISRDNAKKMVYLQMNSLKSEDTAVYYCVVDDFRCGSRWAAYLRSSWGQGTQVTVSS | binds
3 | ciA-H4 (VHH, also called JEC-3; source: E. coli, purified as a thioredoxin fusion protein) VHH: SGGGLVQSGGSLRLSCAASVLTLEYYAIGWFRQAPGKEREGISCTGSSGGSTVYIDSVKGRFTVVRDNAKNMVYLQMDSLQPEDTAVYYCAADDLRCGRGWSSYFRGSWGQGTQVTVSS | binds
